Source: patent US20100255008A1 (Hoffmann-La Roche, published 2010)

Experiments:
[1] = target: T1, Human recombinant soluble TWEAK (human, UniProt O43508 99-249, limits assumed); experiment: cell-based or functional assay
T1 sequence (looked up): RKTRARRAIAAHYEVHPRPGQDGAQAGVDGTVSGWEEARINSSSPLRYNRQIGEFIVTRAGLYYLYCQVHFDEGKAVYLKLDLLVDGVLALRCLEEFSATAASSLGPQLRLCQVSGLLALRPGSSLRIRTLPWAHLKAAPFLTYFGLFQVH

[2] = target: T2, Biotinylated human soluble TWEAK (human, UniProt O43508 99-249, limits assumed, biotinylated (sites not given)); experiment: Biacore SPR, biotinylated human soluble TWEAK on streptavidin sensor, antibody 100 nM as analyte, 25° C.
T2 construct: also called Human TWEAK
T2 sequence (looked up): T1 sequence (looked up)
Method: A Biacore 2000 instrument was used with a Biacore streptavidin coated sensor mounted into the system. The system buffer HBS-ET (10 mM HEPES pH 7.4, 150 mM NaCl, 1 mM EDTA, 0.05% Tween® 20) was used at a flow rate of 100 μl/min. The sample buffer was the system buffer. Biotinylated human soluble TWEAK and biotinylated murine soluble TWEAK was immobilized on different flow cells on the SA sensor at 150 RU each. The flow cell FC1 was used as a blank reference cell. Each antibody was injected into the system as an analyte at 100 nM at 100 μl/min for 2 min association time. The dissociation of the immunecomplexes were monitored for 5 min. The sensor surface was washed with HBS-ET for 10 seconds and regenerated using 2×2 minutes injections with 10 mM glycine pH 2.25. This procedure was done at 25° C. The kinetically rate limiting step of the complex dissociation phase in the interval [240 s-300 s] was taken to calculate the dissociation rate kd [1/s] (Biacore Evaluation Software 4.0). According to the equation t1/2 diss=ln(2)/(60×kd), the half-life of each immunocomplexe in minutes was calculated.

[3] = target: T3, human Flag-tagged soluble TWEAK (amino acids 106-249) (human, UniProt O43508 106-249); experiment: receptor interaction ELISA: antibody pre-incubated with human Flag-tagged soluble TWEAK, binding to coated human Fn14:Fc
T3 construct: the tag is put first here only by convention; also called Human TWEAK; not shown: Flag tag
T3 sequence (looked up): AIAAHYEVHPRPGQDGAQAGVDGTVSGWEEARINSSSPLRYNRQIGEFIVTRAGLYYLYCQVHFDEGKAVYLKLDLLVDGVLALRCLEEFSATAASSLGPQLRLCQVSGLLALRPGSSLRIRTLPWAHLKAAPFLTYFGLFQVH
Method: Blocking of human TWEAK/human Fn14 interaction was shown by receptor interaction ELISA. 96-well Maxisorp® plates (Nunc) were coated with 100 μl 1 μg/ml human Fn14:Fc (extracellular domain of human Fn14 (amino acids 1-75) fused to Fc portion of human IgG1) in PBS per well for 1.5 h at room temperature and blocked with a solution of 5% FBS in PBS for 30 minutes at room temperature under shaking. […] Wells were filled with 100 μl of anti-FLAG-HRP detection antibody, diluted 1:5000 in blocking buffer, and incubated for 1 h at room temperature. After four more wash steps, the signal was developed by addition of 100 μl 3,3,5,5-Tetramethylbenzidine (TMB) solution for approximately ten minutes. The reaction was stopped by adding 100 μl of 1 N HCl, and absorbance measured at 450 nm (reference wavelength 620 nm).

IL-8 Secretion IC50 [1]: 0.112 µg/mL
t/2 diss [min] 25° C. [2]: 20 min
IC50 [3]: 0.0151 µg/mL
B1: TW212 (antibody)
VL: DIVLTQSPAYLTMSPGQTTTISCKASQSVSIGPIHLMHWYQQKPGQPPRLLIYGASNPESGVPARFSGSGSGTDFTLTIHPVEADDAATYFCQQGKESPRTFGPGTKLEITRADAKPTVSIFPPSSEQLGTGSATLVCFVNNFYPKDINVKWKVDGSEKRDGVLQSVTDQDSKDSTYSLSSTLSLTKADYERHNLYTCEVTHKTSTAAIVKTLNRNEC
VH: QVQLQESGPGLLKPAQSLSLTCTVTGYSIRSGYWWSWIRQQPGKGLEWMGQIYNKGNTDNNPSLKSQITMTVDTSKNQFFLRLRSVTTEDTAVYYCARVFWDDAYFDVWGQGIQVTVSSATTTAPSVYPLAPACDSTTSTTNTVTLGCLVKGYFPEPVTVSWNSGALTSGVHTFPSVLHSGLYSLSSSVTVPSSTWPSQTVTCNVAHPASSTKVDKKIVPGDGSGCKPCTCPGPEVSSVFIFPPKPKDVLTISLSPKVTCVVVDISQDDPEVQFSWFIDGKEVHTAVTQPREEQFNSTYRMVSVLPILHQDWLNGKEFKCKVNSPAFPVPIEKTISKRRGQLQVPQVYTMPPPKEQLTQSQVSLTCMIKGFYPEDIDVAWQKNGQPEQSFKNTPPVLDTDETYFLYSKLDVKKDDWEKGDTFTCSVVHEALHNHHTEKTLSQRPGK
notes: Armenian hamster monoclonal antibody; also called Antibody 212
